Among the data in patent US20130066054A1 (UCB, published 2013) are Kd, koff and kon values, retold here.

Residue numbers refer to the chain shown, from its start. In names and notes the source's numbering stands. Several values for one entry are separate records, joined by “and”; a condition that tells them apart may be missing. Equal values may be shown once.

The chains are these.
B1: A26Fab-(3xG4S)-dsFv645 (bispecific antibody)
heavy: EVQLVESGGGLVQPGGSLRLSCAASGFTFTNYGIHWIRQAPGKGLEWVASISPSGGLTYYRDSVKGRFTISRDDAKNSPYLQMNSLRAEDTAVYYCATGGEGIFDYWGQGTLVTVSSASTKGPSVFPLAPSSKSTSGGTAALGCLVKDYFPEPVTVSWNSGALTSGVHTFPAVLQSSGLYSLSSVVTVPSSSLGTQTYICNVNHKPSNTKVDKKVEPKSCSGGGGSGGGGSGGGGSEVQLLESGGGLVQPGGSLRLSCAVSGIDLSNYAINWVRQAPGKCLEWIGIIWASGTTFYATWAKGRFTISRDSTTVYLQMNSLRAEDTAVYYCARTVPGYSTAPYFDLWGQGTLVTVSS
light: DIQMTQSPSSLSASVGDRVTITCRATQSIYNALAWYQQKPGKAPKLLIYNANTLHTGVPSRFSASGSGTDSTLTISSLQPEDFATYYCQQYYDYPLTFGGGTKVEIKRTVAAPSVFIFPPSDEQLKSGTASVVCLLNNFYPREAKVQWKVDNALQSGNSQESVTEQDSKDSTYSLSSTLTLSKADYEKHKVYACEVTHQGLSSPVTKSFNRGECSGGGGSGGGGSGGGGSDIVMTQSPSSVSASVGDRVTITCQSSPSVWSNFLSWYQQKPGKAPKLLIYEASKLTSGVPSRFKGSGSGTDFTLTISSLQPEDFATYYCGGGYSSISDTTFGCGTKVEIK
modifications: 645 Fv disulfide between Cys44 of SEQ ID NO 227 and Cys100 of SEQ ID NO 44 (Kabat); both cysteines are already in the letters
notes: Fab-dsFv: anti-OX40 A26 Fab with the anti-HSA 645 disulfide-stabilised Fv at the C-termini; The asterisk of 'A26-645std*' is not explained; also called A26-645std; A26-645std*
B2: A26-645 Ser77Cys K (bispecific antibody)
heavy: B1 heavy
light: B1 light with S308C
notes: Surface cysteine mutant of A26-645 in the 645 Fv light domain (Kabat numbering); also called S77C 645 Fv light; mutation 14
B3: A26-645 Ser171Cys K (bispecific antibody)
heavy: B1 heavy
light: B1 light with S171C
notes: Surface cysteine mutant of A26-645 (Kabat numbering); also called S171C CK; mutation 11
B4: A26-645 Lys145Cys K (bispecific antibody)
heavy: B1 heavy
light: B1 light with K145C
notes: Surface cysteine mutant of A26-645 (Kabat numbering); also called K145C CK; mutation 9
B5: A26-645 Thr116Cys H (bispecific antibody)
heavy: B1 heavy with T120C
light: B1 light
modifications: 645 Fv disulfide between Cys44 of SEQ ID NO 227 and Cys100 of SEQ ID NO 44 (Kabat); both cysteines are already in the letters
notes: Surface cysteine mutant of A26-645 (Kabat numbering); also called T116C CH1; mutation 1
B6: A26-645 Ser182Cys H (bispecific antibody)
heavy: B1 heavy with S177C
light: B1 light
modifications: 645 Fv disulfide between Cys44 of SEQ ID NO 227 and Cys100 of SEQ ID NO 44 (Kabat); both cysteines are already in the letters
notes: Surface cysteine mutant of A26-645; also called A26-645 Ser180Cys H; S182C CH1
B7: A26-645 Lys149Cys K (bispecific antibody)
heavy: B1 heavy
light: B1 light with K149C
notes: Surface cysteine mutant of A26-645 (Kabat numbering); also called K149C CK; mutation 10
B8: A26-645 Glu143Cys K (bispecific antibody)
heavy: B1 heavy
light: B1 light with E143C
notes: Surface cysteine mutant of A26-645 (Kabat numbering); also called E143C CK; mutation 8
B9: A26-645 Asn210Cys K (bispecific antibody)
heavy: B1 heavy
light: B1 light with N210C
modifications: 645 Fv disulfide between Cys44 of SEQ ID NO 227 and Cys100 of SEQ ID NO 44 (Kabat); both cysteines are already in the letters
notes: Surface cysteine mutant of A26-645 (Kabat numbering); also called N210C CK; mutation 12
B10: A26-645 Ser163Cys H (bispecific antibody)
heavy: B1 heavy with S160C
light: B1 light
modifications: 645 Fv disulfide between Cys44 of SEQ ID NO 227 and Cys100 of SEQ ID NO 44 (Kabat); both cysteines are already in the letters
notes: Surface cysteine mutant of A26-645 (Kabat numbering); also called S163C CH1; mutation 2
B11: A26-645 Cys233Ser H (bispecific antibody)
heavy: B1 heavy with C220S
light: B1 light
modifications: 645 Fv disulfide between Cys44 of SEQ ID NO 227 and Cys100 of SEQ ID NO 44 (Kabat); both cysteines are already in the letters
notes: Control mutant of A26-645 without the heavy chain's interchain cysteine (Kabat numbering); also called C233S CH1; mutation 5
B12: A26-645 Ser82bCys H (bispecific antibody)
heavy: B1 heavy with S318C
light: B1 light
modifications: 645 Fv disulfide between Cys44 of SEQ ID NO 227 and Cys100 of SEQ ID NO 44 (Kabat); both cysteines are already in the letters
notes: Surface cysteine mutant of A26-645 in the 645 Fv heavy domain (Kabat numbering); also called S82bC 645 Fv Heavy; mutation 6
B13: A26-645 Cys214Ser K (bispecific antibody)
heavy: B1 heavy
light: B1 light with C214S
modifications: 645 Fv disulfide between Cys44 of SEQ ID NO 227 and Cys100 of SEQ ID NO 44 (Kabat); both cysteines are already in the letters
notes: Control mutant of A26-645 without the light chain's interchain cysteine (Kabat numbering); also called C214S CK; mutation 13
B14: A26-645 Lys107Cys K (bispecific antibody)
heavy: B1 heavy
light: B1 light with K340C
notes: Surface cysteine mutant of A26-645 in the 645 Fv light domain (Kabat numbering); also called K107C 645 Fv light; mutation 15

For the first experiment, the target named is T1, human serum albumin (human, UniProt P02768 25-609).
T1 construct: also called HSA
Briefly: SPR (Biacore 3000), Fab-dsFv captured, antigen injected, 1:1 fit.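 Note: capture antibody amine-coupled on chip, 3 min antigen association then 20 min dissociation, antigen titrated, reference flow-cell and buffer blanks subtracted.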
Protocol: (§1) Covalent immobilisation of the capture antibody was achieved by standard amine coupling chemistry.
(§2) Each assay cycle consisted of firstly capturing the Fab-dsFv using a 1 min injection, before an association phase consisting of a 3 min injection of antigen, after which dissociation was monitored for 20 min. After each cycle, the capture surface was regenerated with 2×1 min injections of 40 mM HCl followed by 30 s of 5 mM NaOH. The flow rates used were 10 μl/min for capture, 30 μl/min for association and dissociation phases, and 10 μl/min for regeneration.
(§3) For kinetic assays, a titration of antigen was performed, a blank flow-cell was used for reference subtraction and buffer-blank injections were included to subtract instrument noise and drift.
Take B1: the Kd (in general, the free concentration of one partner at which half of the binding sites on the other are occupied at equilibrium, for simple one-to-one binding) was 3.57 nM and 4.11 nM; the koff – broadly, the first-order rate constant of dissociation – was 0.000461 s⁻¹ and 0.000421 s⁻¹; the kon (usually the second-order rate constant of association) is 129000 M⁻¹ s⁻¹ and 103000 M⁻¹ s⁻¹.

B2 registered a Kd of 2.75 nM, a koff of 0.000282 s⁻¹ and a kon of 102000 M⁻¹ s⁻¹.

In turn, B3 displayed a Kd of 2.06 nM, a koff of 0.000257 s⁻¹ and a kon of 125000 M⁻¹ s⁻¹.

B4 yielded a Kd of 1.89 nM, a koff of 0.000259 s⁻¹ and a kon of 137000 M⁻¹ s⁻¹.

Regarding B5, the Kd was 1.87 nM, the koff is 0.000351 s⁻¹ and the kon came out at 188000 M⁻¹ s⁻¹.

In turn, B6 showed a Kd of 1.95 nM, a koff of 0.000411 s⁻¹ and a kon of 210000 M⁻¹ s⁻¹.

As for B7, binding was characterised by a dissociation constant (Kd) of 1.72 nM, the koff came out at 0.00025 s⁻¹ and the kon turned out to be 145000 M⁻¹ s⁻¹.

Take B8: the Kd stood at 2.2 nM, the koff was found to be 0.000337 s⁻¹ and the kon worked out at 153000 M⁻¹ s⁻¹.

B9 returned a Kd of 1.6 nM, a koff of 0.000284 s⁻¹ and a kon of 178000 M⁻¹ s⁻¹.

In turn, B10 displayed a dissociation constant Kd of 3.34 nM, a koff of 0.000722 s⁻¹ and a kon of 216000 M⁻¹ s⁻¹.

As to B11, the Kd came to 1.76 nM, the koff was 0.000275 s⁻¹ and the kon worked out at 157000 M⁻¹ s⁻¹.

B12 gave a Kd of 1.09 nM, a koff of 0.000257 s⁻¹ and a kon of 236000 M⁻¹ s⁻¹.

Turning to B13, the Kd amounted to 1.7 nM, the koff was determined as 0.000282 s⁻¹ and the kon amounted to 166000 M⁻¹ s⁻¹.

For the molecule B14, the Kd was 2.28 nM, the off-rate (koff) is 0.000342 s⁻¹ and the kon turned out to be 150000 M⁻¹ s⁻¹.

Another experiment deals with T2, OX40 (UniProt P43489 29-214).
T2 construct: also called O × 40
T2 sequence (looked up): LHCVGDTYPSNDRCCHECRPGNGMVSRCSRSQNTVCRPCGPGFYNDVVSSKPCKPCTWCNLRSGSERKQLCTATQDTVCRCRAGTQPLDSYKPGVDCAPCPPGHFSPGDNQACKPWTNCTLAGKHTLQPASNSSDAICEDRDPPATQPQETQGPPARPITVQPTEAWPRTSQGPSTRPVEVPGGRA
Described as above.
Protocol: as §1, §2, §3
B1: the equilibrium dissociation constant (Kd) is 0.328 nM and 0.33 nM and 0.463 nM and 0.46 nM; the koff was 0.000149 s⁻¹ and 0.000191 s⁻¹; the kon was 452000 M⁻¹ s⁻¹ and 413000 M⁻¹ s⁻¹.

As to B2, the Kd is 0.248 nM and 0.25 nM; the koff came out at 0.000117 s⁻¹; the kon turned out to be 470000 M⁻¹ s⁻¹.

On to B3, for which the Kd is 0.194 nM and 0.19 nM; the koff was 9.24e-05 s⁻¹; the kon is 477000 M⁻¹ s⁻¹.

Regarding B4, the Kd was 0.241 nM and 0.24 nM; the koff was 0.00011 s⁻¹; the kon came to 457000 M⁻¹ s⁻¹.

Turning to B5, binding was characterised by a dissociation constant (Kd) of 0.27 nM, the koff came to 0.000146 s⁻¹ and the kon amounted to 540000 M⁻¹ s⁻¹.

As to B6, the Kd was 0.247 nM and 0.25 nM; the off-rate constant (koff) worked out at 0.000108 s⁻¹; the kon stood at 437000 M⁻¹ s⁻¹.

Regarding B7, the Kd was 0.231 nM and 0.23 nM; the koff was 0.000107 s⁻¹; the kon is 465000 M⁻¹ s⁻¹.

Turning to B8, the Kd is 0.325 nM and 0.33 nM; the koff amounted to 0.000155 s⁻¹; the kon was found to be 477000 M⁻¹ s⁻¹.

As for B9, the Kd was 0.229 nM and 0.23 nM; the koff came out at 0.000111 s⁻¹; the kon stood at 483000 M⁻¹ s⁻¹.

On to B10, for which the Kd was 0.265 nM and 0.27 nM; the koff came to 0.000146 s⁻¹; the kon turned out to be 550000 M⁻¹ s⁻¹.

B11 displayed a Kd of 0.27 nM, a dissociation rate constant (koff) of 0.000124 s⁻¹ and a kon of 461000 M⁻¹ s⁻¹.

Take B12: the Kd is 0.247 nM and 0.25 nM; the koff is 0.000117 s⁻¹; the kon came out at 473000 M⁻¹ s⁻¹.

Regarding B13, the Kd was 0.278 nM and 0.28 nM; the koff came to 0.000122 s⁻¹; the kon is 437000 M⁻¹ s⁻¹.

Regarding B14, the Kd was 0.234 nM and 0.23 nM; the koff was found to be 0.00012 s⁻¹; the kon was determined as 515000 M⁻¹ s⁻¹.
